Test results reported in paper PMC10876938, “In vitro SELEX and application of an African swine fever virus (ASFV) p30 protein specific aptamer”.

Molecular target: ASFV p30 (African swine fever virus, UniProt P34204 1-204)
Assay: enzyme-linked aptamer adsorbed assay; […] (binding buffer not stated); […], room temperature, 30 min; […]
Conditions: protein: commercial, label: 5'-biotin
[1] = hairpin (M-fold predicted for parent)

ASFV p30, sequence (P34204 whole entry): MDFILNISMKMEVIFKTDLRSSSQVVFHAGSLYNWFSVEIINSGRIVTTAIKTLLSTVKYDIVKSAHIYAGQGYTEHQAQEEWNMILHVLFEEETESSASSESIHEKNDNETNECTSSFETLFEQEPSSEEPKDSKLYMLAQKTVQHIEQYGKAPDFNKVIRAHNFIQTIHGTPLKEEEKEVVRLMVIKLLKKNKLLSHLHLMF

Binder	Kd [1] [nM]	other results
Atc-20 (ssDNA) DNA: CACGCATAGGGTCGACGGTGCCGTCCGTGTTCACACTCCCATTTGGGTGGCCTATGCGTG	0.14 ± 0.01	
Atc-28 (ssDNA) DNA: CATAGGGTCGACGGTGCCGTCCGTGTTCACACTCCCATTTGGGTGGCCTATG	0.153 ± 0.0003	
ATTGGCACTCCACGCATCTATGCGTGCTACCGTGAA (ssDNA) [AptNC]		binding result: no binding
Apt A4 (biotin) (ssDNA) DNA: ATTGGCACTCCACGCATAGGGTCGACGGTGCCGTCCGTGTTCACACTCCCATTTGGGTGGCCTATGCGTGCTACCGTGAA		Kd (hairpin (M-fold predicted)): 0.17 ± 0.0062 nM
GGGTCGACGGTGCCGTCCGTGTTCACACTCCCATTTGGGTGGCC (ssDNA) [Atc-34]	0.266 ± 0.068	
